Assay results published in US20240343803A1 (SHANDONG SIMCERE BIOPHARMACEUTICAL, published 2024).
Read-outs that look alike come from different tables or passages of the source.

B1: COM701-hIgG1 (antibody, V domains shown)
VH: QVQLVQSGAEVKKPGASVKVSCKASGYTFTDYNINWVRQAPGQGLEWMGYIYPYIGGSGYAQKFQGRVTMTRDTSTSTVYMELSSLRSEDTAVYYCAREDKTARNAMDYWGQGTLVTVSS
VL: DIQMTQSPSSLSASVGDRVTITCRVSENIYSNLAWYQQKPGKAPKLLIYEATNLAEGVPSRFSGSGSGTDFTLTISSLQPEDFATYYCQHFWGTPYTFGQGTKLEIK
notes: Anti-PVRIG positive control
B2: PVRIG-A105-H1 (Fc fusion)
chain: EVQLVESGGGLVQPGGSLRLSCAASGRTFDRHTMSWFRQAPGKEREFVATASRIPGDTYYVDSVKGRFTISRDNAKNSLYLQMNSLRAEDTAVYYCAATSAYCSEVDCYEKGSWYDNWGQGTMVTVSS
notes: VHH-human IgG1 Fc format is stated for the parental VHH antibodies; not restated for the humanized variants; also called A105.VH1; not shown: human IgG1 hinge-CH2-CH3 (Fc)

Experiments:
[1] = target: T1, human PVRIG-mFc protein (Acro, PVG-H5253) (human, UniProt Q6DKI7 41-171, limits assumed); assay: HTRF competition, PVRIG-mFc with Bio-CD112-His as competitor
T1 construct: extracellular domain; Bought protein; also called PVRIG-ECD-mFc; not shown: mouse Fc tag of the bought protein
T1 sequence (looked up): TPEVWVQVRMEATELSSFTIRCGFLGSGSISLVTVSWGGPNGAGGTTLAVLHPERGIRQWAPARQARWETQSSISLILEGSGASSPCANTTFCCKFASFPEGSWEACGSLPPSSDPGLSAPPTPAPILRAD
Description: (§1) PVRIG-mFc (ACRO Biosystems, Cat NO. PVG-H5253) and Bio-CD112-His (Sino Biological, Cat NO. 10005-H08H) were diluted to 0.5 μg/mL, respectively. Streptavidin-Tb cryptate (Cisbio) and PAb anti mouse IgG-XL665 (Cisbio) were diluted to 20 μg/mL and 0.8 μg/mL, respectively. The tested antibodies were diluted from the initial concentration of 120 nM, by 3-fold serial dilution for 12 concentration points. The diluted PVRIG-mFc, Bio-CD112-His, Streptavidin-Tb Crytate and PAb anti mouse IgG-XL665 were mixed at 1:1:1:1, and added into a 384-well plate (PE, Cat NO. 6007299), 10 μL/well. 10 μL/well of serially diluted antibodies was added into wells, centrifuged at 1500 rpm for 30s, and incubated at 37° C. for 1 hour. The plate was read on the microplate reader (PE, Envision2105) with wavelengths of 665 nm and 620 nm. […] A Four Parameter Logistic Fit was performed with the molar concentration of the antibodies as the abscissa and Ratio as the ordinate to calculate IC50. The smaller the IC50, the better the effect of the antibody block the binding of PVRIG to PVRL2. The positive controls in this experiment are COM701-hIgG1, PVRIG-A50-H1b and PVRIG-A105-H1; and the negative control antibody is anti-Fluorescein-hIgG1 (in house). The effect of 4 humanized bispecific antibodies blocking the binding of PVRIG to PVRL2 is shown in FIG. 51 and Tables 44 and 45. […] The blocking effect of LC-BsAb-002 is better than its corresponding monoclonal antibody (PVRIG-A50-H1b) and the positive control (COM701-hIgG1). The blocking effect of LC-BsAb-006 is better than its corresponding monoclonal antibody (PVRIG-A50-H1b), but slightly weaker than the positive control (COM701-hIgG1). The blocking effects of LC-BsAb-009 and LC-BsAb-010 are not as good as their corresponding monoclonal antibodies (PVRIG-A105-H1) and the positive control (COM701-hIgG1).

[2] = target: T2, cynomolgus monkey PVRIG (Novoprotein, Cat NO. C09B) (cynomolgus monkey, UniProt A0A2K5WVV8 41-171); assay: ELISA, coated cynomolgus PVRIG
T2 construct: Bought protein; construct not described; also called cynomolgus monkey PVRIG protein
T2 sequence: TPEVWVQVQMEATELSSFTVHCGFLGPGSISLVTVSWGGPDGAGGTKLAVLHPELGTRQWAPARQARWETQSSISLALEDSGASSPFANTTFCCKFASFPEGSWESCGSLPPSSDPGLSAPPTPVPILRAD
Description: (§2) The ELISA plate was pre-coated with 50 μL/well of 1.0 μg/mL human PVRIG (AcroBiosystems, Cat NO. PVG-H52H4) or 50 μL/well of 0.5 μg/mL cynomolgus monkey PVRIG (Novoprotein, Cat NO. C09B). The tested antibodies were serially diluted (initial concentration 13 nM, 3-fold serial dilution, 12 concentration points), added into the plate (50 μL/well) and incubated at 37° C. for 2.0 hours. After washing the plate, the Goat anti-human IgG Fc-HRP (Merck, Cat NO. AP113P) working solution (dilution ratio 1:5000, 50 μL/well) were added into wells and incubated at 37° C. for 1.0 hour. A HRP substrate, TMB (KPL, Cat NO. 5120-0077) was added into wells after washing the plate again and incubated at 37° C. for 10 minutes for color development. After adding a termination solution to terminate the reaction, the absorbance value was read by a microplate reader (PE, Ensight-HH3400). An antibody binding curve was drawn with molar concentration of antibodies as the abscissa and the corresponding OD value as the ordinate. The EC50 value was calculated by using a Four Parameter Logistic Fit (GraphPadPrism9). […] The positive control antibodies are COM701-hIgG1, PVRIG-A50-H1b and PVRIG-A105-H1; and the negative control antibodies are anti-Fluorescein-hIgG1 (in house). The binding results of the 4 humanized bispecific antibodies to human PVRIG protein are shown in FIG. 41 and Tables 40 and 41, and the binding results to cynomolgus monkey PVRIG are shown in FIG. 42 and Tables 40 and 41. […] The binding of LC-BsAb-002 and LC-BsAb-006 to human PVRIG protein is slightly weaker than that of the corresponding monoclonal antibody (PVRIG-A50-H1b) and the positive control (COM701-hIgG1).

[3] = target: T3, human PVRIG (AcroBiosystems, Cat NO. PVG-H52H4) (human, UniProt Q6DKI7 41-171, limits assumed); assay: ELISA, coated human PVRIG
T3 construct: Bought protein with His tag; also called human PVRIG-his; human PVRIG protein
T3 sequence (looked up): T1 sequence (looked up)
Description: as §2

[4] = target: T1, human PVRIG-mFc protein (Acro, …); assay: HTRF competition, PVRIG-mFc with Bio-CD112-His as competitor; remark: listed apart in the source
Description: as §1

[5] = target: T2, cynomolgus monkey PVRIG (Novoprotein, …); assay: ELISA, coated cynomolgus PVRIG; remark: listed apart in the source
Description: (§3) The ELISA plate was pre-coated with 50 μL/well of 1.0 μg/mL human PVRIG (AcroBiosystems, Cat NO. PVG-H52H4) or 50 μL/well of 0.5 μg/mL cynomolgus monkey PVRIG (Novoprotein, Cat NO. C09B). The tested antibodies were serially diluted (initial concentration 13 nM, 3-fold serial dilution, 12 concentration points), added into the plate (50 μL/well) and incubated at 37° C. for 2.0 hours. After washing the plate, the Goat anti-human IgG Fc-HRP (Merck, Cat NO. AP113P) working solution (dilution ratio 1:5000, 50 μL/well) were added into wells and incubated at 37° C. for 1.0 hour. A HRP substrate, TMB (KPL, Cat NO. 5120-0077) was added into wells after washing the plate again and incubated at 37° C. for 10 minutes for color development. After adding a termination solution to terminate the reaction, the absorbance value was read by a microplate reader (PE, Ensight-HH3400). An antibody binding curve was drawn with molar concentration of antibodies as the abscissa and the corresponding OD value as the ordinate. The EC50 value was calculated by using a Four Parameter Logistic Fit (GraphPadPrism9). The smaller the EC50 value, the stronger the ability of the antibodies binds to human or cynomolgus monkey PVRIG. The positive control antibodies are COM701-hIgG1, PVRIG-A50-H1b and PVRIG-A105-H1; and the negative control antibodies are anti-Fluorescein-hIgG1 (in house). The binding results of the 4 humanized bispecific antibodies to human PVRIG protein are shown in FIG. 41 and Tables 40 and 41, and the binding results to cynomolgus monkey PVRIG are shown in FIG. 42 and Tables 40 and 41. […] The binding of LC-BsAb-002 and LC-BsAb-006 to human PVRIG protein is slightly weaker than that of the corresponding monoclonal antibody (PVRIG-A50-H1b) and the positive control (COM701-hIgG1).

[6] = target: T3, human PVRIG (AcroBiosystems, Cat NO. …); assay: ELISA, coated human PVRIG; remark: listed apart in the source
Description: as §3

[7] = target: T1, human PVRIG-mFc protein (Acro, …); assay: FACS blocking of PVRIG-mFc binding to CHO-K1-CD112 cells; competitor CD112
In short: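 After a further 30 min at 4° C with Zombie violet-stained CHO-K1-CD112 cells, binding was detected with PE goat anti-mouse IgG Fc (1:250) as mean fluorescence intensity on a BD Canto II. IC50 and curve AUC, taken from four-parameter logistic fits in GraphPad Prism, were expressed relative to a reference antibody as percentages.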

Binder | % relative activity COM701-hIgG1/tested antibody [1] | % relative activity PVRIG-A105-H1/tested antibody [1] | IC50 [1] | % relative activity COM701-hIgG1/tested antibody [5] | % relative activity PVRIG-A105-H1/tested antibody [5] | EC50 [5] | % relative activity COM701-hIgG1/tested antibody [6] | % relative activity PVRIG-A105-H1/tested antibody [6] | EC50 [6] | other results
B1 | 100% | 93.4% | 0.137 nM | 100% | 66% | 0.0363 nM | 100% | 25.6% | 0.248 nM | % relative activity COM701-hIgG1/tested antibody [2]: 100%; % relative activity PVRIG-A50-H1b/tested antibody [2]: 105%; EC50 [2]: 0.0363 nM; % relative activity COM701-hIgG1/tested antibody [3]: 100%; % relative activity PVRIG-A50-H1b/tested antibody [3]: 153%; EC50 [3]: 0.248 nM; % relative activity COM701-hIgG1/tested antibody [4]: 100%; % relative activity PVRIG-A50-H1b/tested antibody [4]: 150%; IC50 [4]: 0.137 nM
B2 | 107% | 100% | 0.128 nM | 152% | 100% | 0.0239 nM | 390% | 100% | 0.0636 nM | % AUC to COM701-hIgG4 [7]: 111%; % AUC to SO35-hIgG1 [7]: 64.2%; % AUC to parental Ab [7]: 97.9%; % IC50 to COM701-hIgG4 [7]: 104%; % IC50 to SO35-hIgG1 [7]: 88.1%; % IC50 to parental Ab [7]: 99.7%
